tested on: Escherichia coli TOP10; experiment: shrunken log2 fold change of peptide-encoding DNA abundance (4.5 h post-induction vs induction); higher = less antimicrobial activity (less host growth inhibition); details: time post-induction: 4.5 h; library: site-saturation at positions 5, 18, 19, 20
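Also: peptides expressed intracellularly from a pBAD plasmid library in pooled LB shake-flask culture, induced with 0.3% L-arabinose, DNA abundance read by NGS, three biological replicates, DESeq2 with apeglm shrinkage.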

Sequence	shrunken log2 fold change
RRIRPRPPRLPRPRPRPMGCPRP	-0.0927
RRIRHRPPRLPRPRPRPLGAPRP	-0.0242
RRIRARPPRLPRPRPRPLLKPRP	0.0989
RRIRNRPPRLPRPRPRPMGFPRP	-0.0516
RRIRTRPPRLPRPRPRPRVAPRP	0.258
RRIRHRPPRLPRPRPRPSMTPRP	0.0628
RRIRIRPPRLPRPRPRPNGFPRP	-0.114
RRIRERPPRLPRPRPRPCKQPRP	-0.086
RRIRQRPPRLPRPRPRPWTKPRP	-0.00887
RRIRCRPPRLPRPRPRPYHCPRP	-0.271
RRIRHRPPRLPRPRPRPRGWPRP	0.629
RRIRMRPPRLPRPRPRPDFIPRP	-0.0216
RRIRTRPPRLPRPRPRPHYVPRP	-0.0402
RRIRIRPPRLPRPRPRPTTQPRP	0.102
RRIRQRPPRLPRPRPRPTMHPRP	-0.0393
RRIRERPPRLPRPRPRPNTDPRP	-0.554
RRIRTRPPRLPRPRPRPRFIPRP	-0.806
RRIRTRPPRLPRPRPRPFYDPRP	-0.382
RRIRARPPRLPRPRPRPMVYPRP	-0.0537
RRIRYRPPRLPRPRPRPLGMPRP	-0.807
RRIRNRPPRLPRPRPRPWSPPRP	-0.245
RRIRFRPPRLPRPRPRPEVTPRP	-0.0331
RRIRLRPPRLPRPRPRPNAIPRP	-0.385
RRIRKRPPRLPRPRPRPFAKPRP	0.0238
RRIRSRPPRLPRPRPRPENKPRP	-0.125

Sequence	shrunken log2 fold change
RRIRGRPPRLPRPRPRPCKMPRP	-0.0103
RRIRPRPPRLPRPRPRPCCVPRP	0.182
RRIRGRPPRLPRPRPRPFQWPRP	-0.0859
RRIRMRPPRLPRPRPRPPCKPRP	-0.0348
RRIRIRPPRLPRPRPRPHCRPRP	-0.341
RRIRYRPPRLPRPRPRPAMHPRP	-0.045
RRIRRRPPRLPRPRPRPLFIPRP	-0.27
RRIRSRPPRLPRPRPRPMPEPRP	0.376
RRIRYRPPRLPRPRPRPTCKPRP	-0.178
RRIRHRPPRLPRPRPRPSFGPRP	-0.561
RRIRTRPPRLPRPRPRPWHVPRP	0.0162
RRIRLRPPRLPRPRPRPNEQPRP	-0.0127
RRIRVRPPRLPRPRPRPLCMPRP	-0.123
RRIRMRPPRLPRPRPRPITLPRP	-0.521
RRIRLRPPRLPRPRPRPARPPRP	0.449
RRIRARPPRLPRPRPRPQYDPRP	-0.018
RRIRTRPPRLPRPRPRPQRTPRP	-0.296
RRIRHRPPRLPRPRPRPLCFPRP	-0.243
RRIRIRPPRLPRPRPRPQGCPRP	-0.00156
RRIRNRPPRLPRPRPRPRCYPRP	-0.0588
RRIRNRPPRLPRPRPRPGQPPRP	0.0308
RRIRYRPPRLPRPRPRPWFRPRP	-0.567
RRIRRRPPRLPRPRPRPLMAPRP	0.312
RRIRERPPRLPRPRPRPSETPRP	-0.428
RRIRKRPPRLPRPRPRPCREPRP	0.368

Sequence	shrunken log2 fold change
RRIRRRPPRLPRPRPRPMRCPRP	0.384
RRIRLRPPRLPRPRPRPVYFPRP	-0.455
RRIRQRPPRLPRPRPRPETGPRP	0.0496
RRIRDRPPRLPRPRPRPKLVPRP	0.0305
RRIRIRPPRLPRPRPRPTEYPRP	-0.251
RRIRFRPPRLPRPRPRPCDLPRP	-0.142
RRIRMRPPRLPRPRPRPYAEPRP	0.0571
RRIRDRPPRLPRPRPRPYQLPRP	-0.0742
RRIRCRPPRLPRPRPRPMVIPRP	-0.373
RRIRKRPPRLPRPRPRPMGVPRP	0.196
RRIRFRPPRLPRPRPRPLWVPRP	0.0127
RRIRLRPPRLPRPRPRPNESPRP	-0.00771
RRIRDRPPRLPRPRPRPTIVPRP	0.0194
RRIRLRPPRLPRPRPRPRCVPRP	0.0662
RRIRPRPPRLPRPRPRPAELPRP	0.335
RRIRVRPPRLPRPRPRPTANPRP	0.221
RRIRPRPPRLPRPRPRPMRIPRP	0.189
RRIRCRPPRLPRPRPRPVAKPRP	0.275
RRIRARPPRLPRPRPRPDGFPRP	0.135
RRIRMRPPRLPRPRPRPHKCPRP	0.0429
RRIRRRPPRLPRPRPRPHCQPRP	0.17
RRIRLRPPRLPRPRPRPSKPPRP	-0.0779
RRIRSRPPRLPRPRPRPSDIPRP	-0.516
RRIRPRPPRLPRPRPRPCVDPRP	-0.149
RRIRTRPPRLPRPRPRPHWPPRP	-0.078
